Data from article PMC9001736 (Scientific Reports, 2022).

What was measured:
[1] = target: T1, HERC2_(ZZ-DOC) (aa 2702–2914), construct encompassing both ZZ and DOC domains (human, UniProt O95714 2702-2914); experiment: NMR titration; 1H,15N HSQC of 0.1–0.2 mM 15N-labelled HERC2 protein titrated with unlabeled protein or peptide; 298 K; 20 mM Tris (pH 6.8) or 20 mM PBS (pH 6.5), 150 mM NaCl, 2 mM DTT, 10% D2O; conditions: both partners purified
T1 construct: E3 ubiquitin ligase HERC2, human, ZZ and DOC domains, aa 2702–2914; 15N-labelled for NMR; also called linked HERC2_(ZZ-DOC); source: E. coli BL21 (DE3) RIL, purified (Ni-NTA, ULP1 cleavage); not shown: His8x-SUMO, N-terminal, cleaved

[2] = target: T2, ZZ domain of HERC2 (HERC2ZZ, aa 2702–2755 with additional tryptophan at the C-terminus) (human, UniProt O95714 2702-2755); experiment: as above; conditions: both partners purified
T2 construct: E3 ubiquitin ligase HERC2, human, ZZ domain, aa 2702–2755 of the 4834 residue protein; additional tryptophan residue introduced at the C-terminus of HERC2ZZ to quantify the protein and for the tryptophan fluorescence assay; 15N-labelled in the NMR titrations where it is the observed protein; also called HERCZZ; WT HERC2ZZ; source: E. coli BL21 (DE3) RIL, purified (Ni-NTA, ULP1 cleavage; unlabeled …)
T2 chain: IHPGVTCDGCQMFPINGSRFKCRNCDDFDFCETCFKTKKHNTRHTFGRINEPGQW

binding result [1]: binds | binding result [2]: binds
B1: histone H3_(1–12) peptide (aa 1–12 of H3) (peptide, UniProt P68431 2-13, looked up)
peptide: ARTKQTARKSTG
notes: histone H3, aa 1–12; also called H3 peptide
